Experimental data from US20260001914A1, “MACROCYCLIC PEPTIDES TARGETING KRAS” (Merck Sharp & Dohme LLC, priority 2022, published 2026).
*1 amine or outer side, *2 acyl side, *3 side chain or, on linkers, in order; H or OH if unused. Where a SMILES comes first, the peptide text is derived from it. Bridges are numbered along the chain shown (N, C = ends). [ ]: non-standard residue; d: D form. cBu(1-CO,cis-3-CH2NH) = O=C([C@H]1C[C@@H](CN[*:1])C1)[*:2]; Phe(4-guanidino) = N=C(N)Nc1ccc(C[C@H](N)C(=O)O)cc1; X22 = CNC(=N)N(C)CCC[C@@H](C(=O)[*:2])N(C)[*:1]; Ala(pyrimidin-5-yl) = N[C@@H](Cc1cncnc1)C(=O)O; Phe(2,6-F2) = N[C@@H](Cc1c(F)cccc1F)C(=O)O; Nle(5,5-F2) = CC(F)(F)CC[C@H](N)C(=O)O; Phe(2-F) = N[C@@H](Cc1ccccc1F)C(=O)O; NMe3Pal = CN[C@@H](Cc1cccnc1)C(=O)O; X1 = O=C(C12CC(CN[*:1])(C1)C2)[*:2]; Ala(cPr) = N[C@@H](CC1CC1)C(=O)O; NMeF = CN[C@@H](Cc1ccccc1)C(=O)O; PhLac = O=C(O)[C@@H](O)Cc1ccccc1; X4 = O=C([C@H](CCCF)N[*:1])[*:2]; 3Pal = N[C@@H](Cc1cccnc1)C(=O)O; Ahp(2) = CCCCC[C@H](N)C(=O)O; Cba = N[C@@H](CC1CCC1)C(=O)O; hLeu = CC(C)CC[C@H](N)C(=O)O; αMeC = C[C@](N)(CS)C(=O)O; NMeA = CN[C@@H](C)C(=O)O; Nle = CCCC[C@H](N)C(=O)O

What was measured:
[1] = target: KRAS-G12D in AsPC-1 cells (UniProt P01116); assay: cell-based or functional assay
[2] = target: Biotin-labeled KRAS-G12D protein (UniProt P01116-2 1-169, limits assumed, biotin label (site not stated); loaded with BODIPY-GDP); assay: cell-based or functional assay
[3] = target: phosphorylation levels of ERK1/2 in AsPC-1 (homozygous KRAS-G12D) cells (Homo sapiens, UniProt P01116, G12D); assay: Cellular phospho-ERK assay in AsPC-1 cells (Alpha Screen), assay medium without fetal bovine serum; assay type: cell-based; settings: phospho-ERK AlphaScreen, 18 h;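 note: signal taken as phospho-ERK over total ERK per well, both detected in one multiplex bead assay, EC50 from four-parameter logistic fit of dose-response curves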

| AlphaScreen @18 h, EC50 [1] [nM] | SOS assay EC50 [2] [nM] | Molecule | EC50 [3] [nM] |
| --- | --- | --- | --- |
| > 50800 | 756 | cyclo(TyrOMe-NMeA~3Pal-Nle-Phe2F-Nle-NMe3Pal-amBCP) (peptide) |  |
| > 50800 | 27.2 | cyclo(FLac-NMeNvalmid-PyrimAla-Nle-Phe2F-Nle-NMe3Pal-amBCP) (peptide) |  |
| > 50800 | 2120 | cyclo(1Nal-R-K-Nle-Phe3COOH-Nle-NMeF-Cysteamine-C1Ac) (peptide) |  |
| > 50800 | 4410 | cyclo(F-R-3Pal-cBuA-NvaOMe-Nle-NMeF-aMeC1-C1Ac (peptide) |  |
| 48700 | 559 | cyclo(FLac-NMeA-PyrimAla-Nle-2Pal6F-Nle-NMeF-amBCP) (peptide) |  |
| > 50800 | 494 | cyclo(FLac-NMeNvalmid-PyrimAla-Nle-Phe2F-Nle-NMeF-amBCP) isomer 1 (peptide) |  |
| > 50800 | 188 | cyclo(FLac-NMeNvalmid-4CF33Pal-Nle-Phe2F-Nle-NMeF-amBCP) isomer 1 (peptide) |  |
| 542 | 2.39 | cyclo(FLac-NMeA-PyrimAla-cBuA-Phe2F-Nle3F2-NMeF-amBCP) (peptide) |  |
| > 50800 | 758 | cyclo(FLac-NMeNvalmid-3Pal-Nle-Phe2F-Nle-NMe3Pal-c3amCblc) (peptide) |  |
| > 50800 | 3880 | cyclo(F-NMeDabN3-3Pal-NleLac-Phe2F-Nle-NMe3Pal-amBCP) (peptide) |  |
| > 50800 | 2940 | cyclo(FLac-NMeA-3Pal-Nle-Phe2F-Nle-NMeCha-amBCP) (peptide) |  |
| 3480 | 5590 | cyclo(FLac-NMeDabN3-3Pal-Nle-F2FLac-Nle-NMe3Pal-amBCP) (peptide) |  |
| > 50800 | 3060 | cyclo(3Pal-NMeA-3Pal-Nle-Phe2F-Nle-NMe3Pal-amBCP) (peptide) |  |
| 3400 | 51 | cyclo(CPhe-NMeA-PyrimAla-cPrA-Phe2F-Nle3F2-NMeF-MeOximamBCP) isomer 1 (peptide) |  |
| 21000 |  | cyclo(F-NMeA-3Pal-Nle-Phe2F-Nle-NMeF-aMeC1-C1Ac) (peptide) |  |
| > 50800 | 17.3 | cyclo(dF-R-Phe4Gn-Nle-TyrOMe-Nle-NMeF-c3amCblc) (peptide) |  |
| 3950 | 87.6 | cyclo(FLac-NMeDabN3-3Pal-Nle-Phe2F-Nle-NMe3Pal-amBCP) (peptide) |  |
| 7300 | 36 | cyclo(FLac-NMeA-3Pal-Nle-Phe2F-Nle-NMe3Pal-amBCP) (peptide) |  |
| 11100 | 25.3 | cyclo(FLac-NMeNvalmid-PyrimAla-Nle-Phe2F-Nle-NMeF-amBCP) isomer 2 (peptide) |  |
| 23400 | 33.5 | cyclo(FLac-NMeA-PyrimAla-Nle-Phe2F-Nle-NMe3Pal-SMeamBCP) (peptide) |  |
| 439 | 11 | cyclo(FLac-NMeA-PyrimAla-Nle-Phe2F-Nle-NMeYOMe-amBCP) (peptide) |  |
| 330 | 6.47 | cyclo(FLac-NMeA-PyrimAla-cBuA-Phe2F-hL-NMeF-amBCP) (peptide) |  |
| 437 | 4 | cyclo(FLac-NMeA-PyrimAla-cBuA-Phe2F-hcPrA-NMeF-amBCP) (peptide) |  |
| > 50800 | 870 | cyclo(FLac-NMeA-4F3Pal-Nle-2Pal6F-Nle-NMeF-amBCP) (peptide) |  |
| 50200 | 1450 | cyclo(FLac-NMeA-3Pal2F-Nle-Phe2F-Nle-NMe3Pal-amBCP) (peptide) |  |

| AlphaScreen @18 h, EC50 [1] [nM] | SOS assay EC50 [2] [nM] | Molecule | EC50 [3] [nM] |
| --- | --- | --- | --- |
| 1230 | 26 | cyclo(FLac-NMeNvaF-PyrimAla-cPrA-Phe2F-hL-NMeF-amBCP) (peptide) |  |
| 37200 | 91.1 | cyclo(Phe4Me-NMeA-3Pal-Nle-Phe2F-Nle-NMe3Pal-amBCP) (peptide) |  |
| 11600 | 80.9 | cyclo(FLac-NMeDabN3-PyrimAla-Nle-Phe2F-Nle-NMe3Pal-amBCP) (peptide) |  |
| 2030 | 2.43 | cyclo(FLac-NMeA-PyrimAla-NleF-Phe2F-Nle-NMeF-amBCP) (peptide) |  |
| > 50800 | 6560 | cyclo(F-DabN3~3Pal-cBuA-V-Nle-NMe3Pal-amBCP) (peptide) |  |
| > 50800 | 313 | cyclo(F-NMeA~3Pal-Nle-Phe2F-Nle-NMe3Pal-amBCP) (peptide) |  |
| 21700 | 3060 | cyclo(FLac-NMeNle-3Pal-DabN3-Phe2F-Nle-NMe3Pal-amBCP) (peptide) |  |
| 39400 | 20.7 | cyclo(FLac-R-3Pal-Nle-Phe2F-Nle-NMeF-amBCP) (peptide) |  |
| > 50800 | 466 | cyclo(FLac-NMeS-3Pal-Nle-Phe2F-Nle-NMe3Pal-amBCP) (peptide) |  |
| 589 | 72.4 | cyclo(FLac-NMeA-4F3Pal-Nle-Phe2F-Nle-NMeF-amBCP) (peptide) |  |
| 32300 | 22.3 | cyclo(Phe3Me-NMeA-3Pal-Nle-Phe2F-Nle-NMe3Pal-amBCP) (peptide) |  |
| 994 | 12.5 | cyclo(FLac-NMeA-PyrimAla-Nle-Phe2F-Nle-NMePhe4F-amBCP) (peptide) |  |
| 674 | 1.87 | cyclo(FLac-NMeA-PyrimAla-cBuA-Phe2F-hL3F-NMeF-amBCP) (peptide) |  |
| > 50800 | 1780 | cyclo(4F3Pal-NMeA-3Pal-Nle-Phe2F-Nle-NMe3Pal-amBCP) (peptide) |  |
| 590 | 17.4 | cyclo(FLac-NMeA-PyrimAla-Nle-Phe2F-Nle-NMeF-amBCP) (peptide) |  |
| 45000 |  | cyclo(FLac-NMeA-PyrimAla-cBuA-Phe2F-Nle-NMe3Pal-amBCP) (peptide) |  |
| 356 |  | cyclo(FLac-NMeA-PyrimAla-cBuA-Phe26F2-hL-NMeF-amBCP) (peptide) |  |
|  |  | CCCC[C@@H]1NC(=O)[C@H](Cc2ccc(NC(=N)N)cc2)NC(=O)[C@H](CCCN(C)C(=N)NC)N(C)C(=O)[C@H](Cc2ccccc2)NC(=O)[C@H]2C[C@@H](CNC(=O)[C@H](Cc3ccccc3)N(C)C(=O)[C@H](CCCC)NC(=O)[C@H](Cc3ccc(OC)cc3)NC1=O)C2 [compound 384, cyclo(F-NMeArg1MeMe-Phe4Gn-Nle-TyrOMe-Nle-NMeF-c3amCblc)] (cyclo(F[X22][Phe(4-guanidino)][Nle]Y(Me)[Nle][NMeF][cBu(1-CO,cis-3-CH2NH)])) | > 50800 |
|  |  | CC(C)CC[C@@H]1NC(=O)[C@H](Cc2ccccc2F)NC(=O)[C@H](CC2CC2)NC(=O)[C@H](Cc2cncnc2)NC(=O)[C@H](C)N(C)C(=O)[C@H](Cc2ccccc2)OC(=O)C23CC(CNC(=O)[C@H](Cc4ccccc4)N(C)C1=O)(C2)C3 [compound 260, cyclo(FLac-NMeA-PyrimAla-cPrA-Phe2F-hL-NMeF-amBCP)] (cyclo([Ala(cPr)][Phe(2-F)][hLeu][NMeF][X1][PhLac][NMeA][Ala(pyrimidin-5-yl)])) | 167 |
|  |  | CC(C)CC[C@@H]1NC(=O)[C@H](Cc2c(F)cccc2F)NC(=O)[C@H](CC2CCC2)NC(=O)[C@H](Cc2cncnc2)NC(=O)[C@H](C)N(C)C(=O)[C@H](Cc2ccccc2)OC(=O)C23CC(CNC(=O)[C@H](Cc4ccccc4)N(C)C1=O)(C2)C3 [compound 226, cyclo(FLac-NMeA-PyrimAla-cBuA-Phe26F2-hL-NMeF-amBCP)] (cyclo([Cba][Phe(2,6-F2)][hLeu][NMeF][X1][PhLac][NMeA][Ala(pyrimidin-5-yl)])) | 355 |
|  |  | C[C@H]1C(=O)N[C@@H](Cc2cncnc2)C(=O)N[C@@H](CC2CCC2)C(=O)N[C@@H](Cc2ccccc2F)C(=O)N[C@@H](CCC(C)(F)F)C(=O)N(C)[C@@H](Cc2ccccc2)C(=O)NCC23CC(C2)(C3)C(=O)O[C@@H](Cc2ccccc2)C(=O)N1C [compound 224, cyclo(FLac-NMcA-PyrimAla-cBuA-Phe2F-Nle3F2-NMeF-amBCP)] (cyclo([Cba][Phe(2-F)][Nle(5,5-F2)][NMeF][X1][PhLac][NMeA][Ala(pyrimidin-5-yl)])) | 542 |
|  |  | CCCC[C@@H]1NC(=O)[C@H](Cc2cccnc2)NC(=O)[C@H](C)N(C)C(=O)[C@H](Cc2ccccc2)NC(=O)C23CC(CNC(=O)[C@H](Cc4cccnc4)N(C)C(=O)[C@H](CCCC)NC(=O)[C@H](Cc4ccccc4F)NC1=O)(C2)C3 [compound 162, cyclo(F-NMeA-3Pal-Nle-Phe2F-Nle-NMe3Pal-amBCP)] (cyclo(F[NMeA][3Pal][Nle][Phe(2-F)][Nle][NMe3Pal][X1])) | > 50800 |
|  |  | CCCC[C@@H]1NC(=O)[C@H](Cc2ccccc2F)NC(=O)[C@H](CCCF)NC(=O)[C@H](Cc2cccnc2)NC(=O)[C@H](C)N(C)C(=O)[C@H](Cc2ccccc2)OC(=O)C23CC(CNC(=O)[C@H](Cc4cccnc4)N(C)C1=O)(C2)C3 [compound 120, cyclo(FLac-NMeA-3Pal-NvaF-Phe2F-Nle-NMe3Pal-amBCP)] (cyclo([3Pal][X4][Phe(2-F)][Nle][NMe3Pal][X1][PhLac][NMeA])) | > 50800 |
|  |  | CCCCC[C@@H]1NC(=O)[C@H](Cc2ccc(OC)cc2)NC(=O)[C@H](CC2CCC2)NC(=O)[C@H](Cc2cncnc2)NC(=O)[C@H](CCCNC(=N)N)NC(=O)[C@H](Cc2ccccc2)NC(=O)CSC[C@@](C)(C(N)=O)NC(=O)[C@H](Cc2ccccc2)N(C)C1=O [compound 367, cyclo(F-R-PyrimAla-cBuA-TyrOMe-Ahp-NMeF-aMeCl-ClAc)] ({CH2CO}-FR[Ala(pyrimidin-5-yl)][Cba]Y(Me)[Ahp(2)][NMeF][αMeC]-NH2; thioether N-8) | > 50800 |
